# Measured values as given in the supplement of paper PMC9112550, “Optimization of the antimicrobial peptide Bac7 by deep mutational scanning” (BMC Biology, 2022).
# System: Escherichia coli TOP10
# Test: shrunken log2 fold change of peptide-encoding DNA abundance (4.5 h post-induction vs induction); higher = less antimicrobial activity (less host growth inhibition)
# Settings: time post-induction: 4.5 h; library: site-saturation at positions 5, 18, 19, 20
# 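Also: peptides expressed intracellularly from a pBAD plasmid library in pooled LB shake-flask culture, induced with 0.3% L-arabinose, DNA abundance read by NGS, three biological replicates, DESeq2 with apeglm shrinkage.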
row,Sequence,shrunken log2 fold change
1,RRIRIRPPRLPRPRPRPWWIPRP,-0.0829
2,RRIRMRPPRLPRPRPRPNWTPRP,0.132
3,RRIRSRPPRLPRPRPRPFFCPRP,-0.11
4,RRIRWRPPRLPRPRPRPDCRPRP,0.0695
5,RRIRMRPPRLPRPRPRPFCSPRP,0.0534
6,RRIRRRPPRLPRPRPRPISLPRP,-0.224
7,RRIRLRPPRLPRPRPRPEDSPRP,-0.0351
8,RRIRVRPPRLPRPRPRPMSVPRP,0.0581
9,RRIRHRPPRLPRPRPRPGVRPRP,0.175
10,RRIRPRPPRLPRPRPRPFYKPRP,-0.25
11,RRIRDRPPRLPRPRPRPGMNPRP,0.164
12,RRIRIRPPRLPRPRPRPNMRPRP,-0.374
13,RRIRHRPPRLPRPRPRPSKFPRP,-0.64
14,RRIRVRPPRLPRPRPRPWPIPRP,-0.0661
15,RRIRRRPPRLPRPRPRPWFTPRP,0.0255
16,RRIRMRPPRLPRPRPRPPQNPRP,1.13
17,RRIRPRPPRLPRPRPRPIPRPRP,0.449
18,RRIRHRPPRLPRPRPRPYATPRP,-0.172
19,RRIRKRPPRLPRPRPRPSSLPRP,-0.557
20,RRIRGRPPRLPRPRPRPIPSPRP,0.485
21,RRIRRRPPRLPRPRPRPIIIPRP,0.0103
22,RRIRRRPPRLPRPRPRPIEYPRP,-0.124
23,RRIRHRPPRLPRPRPRPIDNPRP,-0.359
24,RRIRARPPRLPRPRPRPITEPRP,-0.38
25,RRIRKRPPRLPRPRPRPPAIPRP,0.657

row,Sequence,shrunken log2 fold change
1,RRIRTRPPRLPRPRPRPEDKPRP,-0.0305
2,RRIRERPPRLPRPRPRPAPSPRP,0.116
3,RRIRHRPPRLPRPRPRPVANPRP,-0.0206
4,RRIRFRPPRLPRPRPRPCGYPRP,-0.0542
5,RRIRNRPPRLPRPRPRPIWVPRP,-0.0659
6,RRIRKRPPRLPRPRPRPWRGPRP,0.155
7,RRIRGRPPRLPRPRPRPPGVPRP,0.931
8,RRIRCRPPRLPRPRPRPLGCPRP,0.347
9,RRIRMRPPRLPRPRPRPHCNPRP,0.043
10,RRIRKRPPRLPRPRPRPQEAPRP,-0.000925
11,RRIRKRPPRLPRPRPRPFQMPRP,-0.28
12,RRIRKRPPRLPRPRPRPEKCPRP,0.0317
13,RRIRGRPPRLPRPRPRPRWEPRP,0.946
14,RRIRRRPPRLPRPRPRPVTSPRP,0.0312
15,RRIRFRPPRLPRPRPRPENHPRP,-0.84
16,RRIRLRPPRLPRPRPRPFQNPRP,-0.0252
17,RRIRHRPPRLPRPRPRPRTNPRP,0.0589
18,RRIRPRPPRLPRPRPRPWRQPRP,0.0206
19,RRIRPRPPRLPRPRPRPIMSPRP,0.0779
20,RRIRGRPPRLPRPRPRPAGLPRP,0.479
21,RRIRYRPPRLPRPRPRPKVEPRP,-0.157
22,RRIRLRPPRLPRPRPRPFISPRP,-0.182
23,RRIRWRPPRLPRPRPRPKDSPRP,0.118
24,RRIRVRPPRLPRPRPRPHEWPRP,-0.276
25,RRIRLRPPRLPRPRPRPNCIPRP,-0.603

row,Sequence,shrunken log2 fold change
1,RRIRCRPPRLPRPRPRPRICPRP,0.183
2,RRIRRRPPRLPRPRPRPAMHPRP,0.422
3,RRIRYRPPRLPRPRPRPHVVPRP,-0.261
4,RRIRGRPPRLPRPRPRPEHNPRP,0.327
5,RRIRLRPPRLPRPRPRPVWLPRP,0.242
6,RRIRERPPRLPRPRPRPKELPRP,0.00511
7,RRIRRRPPRLPRPRPRPPLLPRP,0.675
8,RRIRIRPPRLPRPRPRPCMCPRP,-0.422
9,RRIRIRPPRLPRPRPRPCHPPRP,-0.447
10,RRIRLRPPRLPRPRPRPYYIPRP,-0.982
11,RRIRDRPPRLPRPRPRPPEPPRP,0.84
12,RRIRIRPPRLPRPRPRPHSGPRP,-0.00591
13,RRIRIRPPRLPRPRPRPGHQPRP,-0.00431
14,RRIRKRPPRLPRPRPRPTTTPRP,0.494
15,RRIRHRPPRLPRPRPRPHISPRP,-0.226
16,RRIRYRPPRLPRPRPRPVQIPRP,-0.146
17,RRIRERPPRLPRPRPRPSFRPRP,-0.431
18,RRIRYRPPRLPRPRPRPHRWPRP,-0.0477
19,RRIRRRPPRLPRPRPRPLQQPRP,0.0366
20,RRIRVRPPRLPRPRPRPQHDPRP,-0.0871
21,RRIRARPPRLPRPRPRPTRWPRP,0.539
22,RRIRFRPPRLPRPRPRPENDPRP,0.0619
23,RRIRARPPRLPRPRPRPEYLPRP,-0.00441
24,RRIRLRPPRLPRPRPRPLIIPRP,-0.631
25,RRIRDRPPRLPRPRPRPSSSPRP,0.135
